The text below walks through data of PMC2615620 (Nucleic Acids Research, 2008).

In this test the target is T1, Snu17 of the RES complex purified from yeast (S. cerevisiae (endogenous in the …, UniProt P40565 1-148)).
T1 sequence (looked up): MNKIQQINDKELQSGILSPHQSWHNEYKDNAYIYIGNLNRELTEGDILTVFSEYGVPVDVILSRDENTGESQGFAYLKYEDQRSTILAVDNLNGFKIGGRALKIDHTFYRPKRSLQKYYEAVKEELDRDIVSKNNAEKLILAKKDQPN
Kind of test: SEC.

B1: Bud13 of the RES complex purified from yeast (natural protein, UniProt P46947 1-266, looked up)
chain: MALHQYLSETYGPTKPKNKTKKKKKESKSDANSDKTSLIVKERLSTLQQEQEKSGVASFSKFDKQKSKNIWKNLETNELSHAITHPSASSITGNESKNDLKEIRAQEPLVTVADKSKTRKTIYRDAQGHKIQEDSKIDDSSFSRSKYEDEKAAEREQYLKNLNMGDVQKLGINVDAHDKKKNQTASSLTIEDPAITFTHDKERTVKTSLLGRKLYDKPAPENRFAIMPGSRWDGVHRSNGFEEKWFAKQNEINEKKVQSYTLQEDY
B1: the “stoichiometry N” value was 1.

B2: Pml1 of the RES complex purified from yeast (natural protein, UniProt Q07930 1-204, looked up)
chain: MFHRRKRPYNTRNYGHDDKKFKSQYIDIMPDFSPSGLLELESNNKEGIALKHVEPQDAISPDNYMDMLGLEARDRTMYELVIYRKNDKDKGPWKRYDLNGRSCYLVGRELGHSLDTDLDDRTEIVVADIGIPEETSSKQHCVIQFRNVRGILKCYVMDLDSSNGTCLNNVVIPGARYIELRSGDVLTLSEFEEDNDYELIFMNV
As for B2, the “stoichiometry N” value worked out at 1.

In general, stoichiometry N refers to the number of molecules, sites or subunits per partner or assembly.
